# Measured values taken from the nanobody polyreactivity screen of Harvey et al. (2022).
# Test: yeast display, Sf9 membrane polyspecificity reagent, FACS + sequencing; frameworks hold sequencing errors
# Method in brief: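 Genes from sorted yeast were amplified by colony PCR, read by MiSeq 2 × 250 sequencing and filtered on CDR length. These cells carried a synthetic nanobody library in Saccharomyces cerevisiae BJ5465 and were sorted by FACS into low and high (top ~1%) gates on anti-HA and streptavidin fluorescence. Polyreactivity is labelled according to the gate of origin.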
row,Sequence,polyreactivity (PSR sort gate)
1,QVQLVESGGGLVQAGGSLRLSCAASGSTFYKYAMGWYRQAPGKERELVAAISASGGSTYYADSVKVRFTISRDNAKNTVYLQMNSLNPEDTAVYYCAKASAYSAYADHDYYWGQGTQVTVSS,high polyreactivity
2,QVQLVESGGGLVQAGGSLRLSCAASGRIFRTNAMGWYRQAHGKEWELVAAITRGGTTNYADSVKGRFTISRDNAKNTVYLQMNSLKPEDTAVYYCAVDQGYVVRLAWIYGYWGQGTQVTVSS,low polyreactivity
3,QVQLVESGGGLVQAGGSLRLSCAASGRTFGYYAMGWYRQAPGKERELVAAISRSGSRTYYADSVKGRFTISRDNAKNTVYLQMNSLKPEDTAVYYCNKVKEFYVPTEYDYWGQGTQVTVSS,high polyreactivity
4,QVQLVESGGGLVQAGGSLRLSCAASGSTCPYYAMGWYRQAPRKEMELVASIRKRGGGTSYADSVKGRFTISRDNAKNTVYLQMNSLKPEDTALYYCAVRVYQLRYTGYDYWGQCTQVTVSS,high polyreactivity
5,QVQLVESGGGLVQAGGSLRLSCAASGRIFGGYAMGWYRQAPGKERELVAVITDGGSTNYADSVKGRFTISRDNAKNTVYLQMNSLKPEDTAVYYCAADSDGDEPPYDYWGQGTQVTVSS,low polyreactivity
6,QVQLVESGGGLVQAGGSLRLSCAASGSTFPQNAMGWTRQAPGKERELVAVISRSGGNPYYADSVKGRFTISRDIAKNSVYLQMNSLKPEDTAVYYCATRVKTTYDYWGQGTQVTVSS,low polyreactivity
7,QVQLVESGGGLVQAGGSLRLSCAASGRTFVFNTMGWYRQAPGKERELVADISRGDSTNYADSVKGRFTISRDNAKNTVYLQMNSLKPEDTAVYYCAAKWRWSGSILYRYGYGYWGQGTQVTVSS,high polyreactivity
8,QVQLEDSGGGLVQAGGRLRLTCAASGSIFSLNAMGWSRKAPGKERELVAAINSGGTTNYADSVKGRFTISRDNAKNTVYLQMNSLKPEDSAVYYCATDGYYYYYRVYKFDYWGLGTQVTVSS,low polyreactivity
9,QVQLVESGGGLVQAGGSLRLSCAASGFTFGGNAMGWYRQAPGKERELVADITWSGGSTYYADSVKGRFTISRDNAKNTVYLQMNSLKPEDTAVYYCNTVRYPSSNSGLDYWGQGTQVTVSS,high polyreactivity
10,QVQLVESGGGLVQAGGSLRLSCAASGSIFGDNAMGRYRQAPGKERELVAVISSSGSTYYADSVKGRFTISRDTAMNTVYLQMNSLKAEDTAVYYCNAYEFDWYEEYYYWGQGTQVTVSS,low polyreactivity
11,QVQLVESGGGLVQAGGSLRLSCAASGSTFYYYAMGWYRQAPGKERELVASISFSGGSTYYADSVKGRFTISRDNAKNTVYLEMNRLKPEDTAVYYCGYYYWGQGTQVTVSS,low polyreactivity
12,QVQLVESGGGLVQAGGSLRLSCAASGFIFWSYAMGWYRQAPGKERELVAAINTSGDSTYYADSVKGRFTISRDNAKYTVYLQMNSLKPEDTAVYSCAAKSSTRGDYWGQGTQVTVSS,low polyreactivity
13,QVQLVESVGGLVQAGGSLRLSCAASGIIFARYAMGWYRQAPGKERELVASISWSTGNTYYADSVKGRFTISRDNAKNTVYLQMNSLKPEDTAVYYCAATYRRKYWTMDYWGQGTQVTVSS,high polyreactivity
14,QVQLVESGGGLVQAGGSLRLSCAASGRIFPHYTMGWYRQAPGKERELVATISGRGGSTYYADSVKGRFTISRDIAKNTVYLQMNSLKPEDTAVYYCAREGCRRYAGLYYWGQGTQVTVSS,high polyreactivity
15,QFQLVESGGGLVQAGGSLRLSCAASGRTFYDNTMGWYRQAPGKERELVAAITRNGGSTYYADSVKGRFTISRDNAKNTVYLQMNSLKPEDTAVYYCAAEGPSHRLNVRLVKGSDSWGQGTQVTVSS,low polyreactivity
16,QVQLVESGGGLVQAGGSLRLSCAASGLIFVGYAMGWYRQAPGTERELVAAITSGGSTNYADSVKGRFTISRDNAKNTVYLQMNSLKPEDTAVYYCAASDAIPLRYDYWGQGTQVTVSS,low polyreactivity
17,QVQLVESGGGLVQAGGSLRLSSAASGSTLYRYAMGWYRQAPGKERELVAAISRSGGNTYYADSVKGRFTISRDNAKNTVYLQMNSLKPEDTAVYYCNADSFIRYDYWGQGTQVTVSS,high polyreactivity
18,QVQLVESGGGLVQAGGSLRLSCAASGRTFWYYTMGWYIQAPGKERELVASITYRGGSTYYADSVKGRFTISRDNAKNTVYLQMNSLKPEDTAVYYCNARYKRYSYDYWGQGTQVTVSS,high polyreactivity
19,QVQLVESGGGLVQAGGSLRLSCAASGRIFAGYAMGWYRQAPGKERELLATISSGGSTYFAHSVKGRFTISRDNAKNTVYLQMNSLKPEDTAVYYCSAEYGTRQYSCYYKLFNYWGQGTQVTVSS,low polyreactivity
20,QVQLVESGGGLVQAGGSLRLSCAASGRTFKKYAMGWYRQAPGKERELVAAITGSGGSTYYADSVKGRFTISRDNAKNTVYLQMNSLKPEDTAVYYCAAEVVAQMNYWGQGTQVTVSS,low polyreactivity
21,QVQLVESAAVLVQAGGRLRLSCADSGRIFTDNGMGWYRQAPGKERELVAAISESGGSTYYADSVKGRFTISRDNAKNTVYLQMNSLKPEDTAVYYCAADLYWYGYHYDYWGQGTQVTVSS,low polyreactivity
22,QVQLVESGGGLVQAGGSLRLSCAASGSILHAYAMGWYRQAPGKEREFVAAIRRRGGSTYYADSVKGRFTISRDNAKNTVYLQMNSLKPEDTAVYYCAARFPLIGDSGGKSDYWGQGTQVTVSS,high polyreactivity

row,Sequence,polyreactivity (PSR sort gate)
1,QVQLVESGGGLVQAGGSLRLSCAASGFTLRSYTMGWYRQAPGKERELVAAITSRGTSTYYADSVKGRFTISRDNAKNTVYLQMNSLKPEDTAVYYCADPIYNGYASWQVYYWGQGTQVTVSS,high polyreactivity
2,QVQLVESGGGLDQARGSLRLSCAASGFIFGRYAMGWYRQAPGKVRELVAAISRSGGSTHYADSVKGRFTISRDNAKNTVYLQMNSLKPEDTAVYYCNTYLTIWGYFYGYDYWGQGTQVTVSS,high polyreactivity
3,QVQLVESGGGLVQAGGSLRLSCAASGITFGAYAMGWYRQAPGKEMELVAVITRGADTYYADSVKGRFTISRDNAKNTVYLQMNSLKPEDTAVYDCAAEIDLPYYYGSDDDDYWGQGTQVTVSS,high polyreactivity
4,QVQLVESGGGLVQAGGSLSLSCDASGFTFRYYFMGWYRQAPGKERELVAAISYTGRTTYYADSVKGRFTISRDNAKNTVYLQMNSLKPEDTAVYYCASGAIGYNGKAYGMDYWGQGTEVTVSS,high polyreactivity
5,QVQLVESGGGIVQAGGSLSLSCAASGSTFSIYAMGWSRQATGTEREVVAAISGSGSRTYYADSVKGRFTISRDNEKNSVYLQMNMLKPEDTAVYYCAALGRHRDGFDFNYWGQGTQVTLSS,high polyreactivity
6,QVQLVESGARLVQAGGSLRLSCAASGFIFRAYTMGWYRQAPGKERELVAAITSSGGRTYYADSVKGRFTISRDNAKNTVYLQMNSLKPEDTAVYYCATVDAKWKQFDYWGQGTQVTVSS,high polyreactivity
7,QVQLVESGGGLVQAGGSLRLSCAASGRNFRWYAMGWYRQAPGKERELVAAITRGDITNYADSVKGRFTISRDNAKKTVYLQMNSLKPEDTAVYYCNAQWYDIYDYWGQGTQVTVSS,high polyreactivity
8,QVQLVESGGGLVQAGGSLRLSCAASGRIFKRYAMGWYRQAPGKERELVAAISRGGSTNYADSVKGRFTISRDNAKNTVYLQMNSLKPEDTAVYYCAVQSGYSGSSQPVRYDYWGQGTQVTVSS,high polyreactivity
9,QVQLVESGGGLVQAGGSLRLSCAASGRIFVSHAMGWYRQAPGKERALVAGITWTSGSTYYADSVKGRFTISRDNAKNTVYLQMKSLKPEDTAVYYCAAEYWYGNAFDYWGLGTQVTVSS,low polyreactivity
10,QVQLVESGGGLDQAGGSLRLISAASGYVMGWYRQAPEKEKELVATITRGTSTYYADSVKGRFTISRDNAKNTVYFQMNSLKPDDTAVYYCAARTTSGEWPPGNICTYLYDYWGQGTQVTVSS,low polyreactivity
11,QVQLVESGGGLVQAGGSLRLICAASGSTFRYYAMGWYRQAPGKEREFVAAISLRAGSTYYADSVKGRFTISRDNAKNTVYLQMNSLKPEDTAVYYCAARRASYGTRRYDYWGQGTQVTVSS,high polyreactivity
12,QVQLVESGGGLVQAGGSLRLSCAASGSISYFNDMGWYRQAPGKERELVAAIRDSGGITYADSVKGRFTISRDNAKNTVYLQMNSLKPEDTAVYYCDKDAGLQKYHHDYWGQGTQVTVSS,low polyreactivity
13,QVQLVESGGGLVQAGGSLRLSCAASGPTFYKYAMGWYRQAPGKERELVATITRRGGSTYYADSVKGRFTISRDNAKNTVYLQMNSLKPEDTAVYYCAKEIFLKGPDGHDYWGQGTQVTVSS,low polyreactivity
14,QVQLEESGAGLVQARGSLRLSCAASGRTFIWNAMGWYRQAPGKERELVAAISSRGGRTYYADSVKGRFTISRDNAKNTVYLQMNILKPEDTAVYYCAAYYITFIGRGYGYWGQGTQVTVSS,high polyreactivity
15,QDQLVKSGGGLVQAGGSLRLSCAASGSTFTRNAMGWYRQAHGKERELVAAITLRGGRTYYADSVNGRFTISRDNAKNTVYLHMNSLKPEDTAVYYCAAKPYSAYSYYEQRGRKYDYWGQGTQVTVSS,low polyreactivity
16,QVQLQESGGGLVQAGGTLRLSCAASGSFSADEDMGWYRQSQGKEREFVAGISVGGNTNYADSVKGRFTISRENAKKTVYLKINCLKPEDTAVYYCRVRLRTSYLLDYWGQGTQVTVSS,high polyreactivity
17,QVQLVESGGGIVQAGGSHRLSCAASGRIFGVNAMGWYRQATGKERELVAAISVSGDSTYYADSVKGRFTISRDNAKNTVYLQMNSLKPEDTAVYYCNAGYTFVPADLTDEYYWGQGTQVTVSS,low polyreactivity
18,QVQLVESGGGLVQAGGSLRLSCAASGSTFEPYVMGWYRQAPGKERELVAAITYSGGRTYYADSVKGRFTISRDNAKNTVYLQMNSLKPEDTAVYYCAKVDRSYGYSRYWFKYGYWGQGTQVTVSS,low polyreactivity
19,QVQLVESGRGLVQAGGSLRLSCAASGSIFRYNAMGWYRQAPGKERELVAAITRRGTSTYYADSVKGRFTISRDNAKNTVYLQKNSLKPEDTAVYYCAARYLYGVPVGGHGYWGQGTQVSVSS,high polyreactivity
20,QVQLVESGGGLVQAGGSLRLSCAASGSMLKSYAMGWYIQAPGKESELVAAITYRDGSTYYADSVKGRFTISRDNAKNTVYLQMNSLKPEDTAVYYCNARWARGRYAQYGGLDREYDYWGQGTQVTVSS,high polyreactivity
21,QVQLVESGGGLVQAGGSLRLSCAASGRIFLTNAMGWYRQAHGKERELVADISRGGSTYADSVKGRFTISRDNAKNTVYLQMNSLKPEDTAVYYCAADEYSPGDSRTRYDYWGQGTQVTVSS,low polyreactivity
